The record followed here is PMC9890960, “Exploiting photosynthesis-driven P450 activity to produce indican in tobacco chloroplasts” (Frontiers in Plant Science, 2023).

One data set has as its target T1, IsiB^6803 (Synechocystis sp. PCC 6803, UniProt P27319).
T1 construct: gene from colony PCR, pET14b, E. coli BL21(DE3), HisTrap purified; apoprotein for ITC
T1 sequence (P27319 1-170): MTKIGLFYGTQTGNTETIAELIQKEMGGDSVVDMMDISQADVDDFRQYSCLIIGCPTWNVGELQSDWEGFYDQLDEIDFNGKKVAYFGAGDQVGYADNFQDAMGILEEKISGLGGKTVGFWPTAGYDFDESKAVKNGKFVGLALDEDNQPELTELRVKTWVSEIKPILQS
As to the kind of experiment: isothermal titration calorimetry. The settings on record: read-out: affinities. Format: binding.

The next data set has as its target T2, HsCPR^62-241 (Homo sapiens, UniProt P16435).
T2 construct: gene POR; soluble flavodoxin-like (FMN) domain, residues 62-241, pET14b, E. coli BL21(DE3), HisTrap purified; apoprotein for ITC
T2 sequence (P16435 62-241): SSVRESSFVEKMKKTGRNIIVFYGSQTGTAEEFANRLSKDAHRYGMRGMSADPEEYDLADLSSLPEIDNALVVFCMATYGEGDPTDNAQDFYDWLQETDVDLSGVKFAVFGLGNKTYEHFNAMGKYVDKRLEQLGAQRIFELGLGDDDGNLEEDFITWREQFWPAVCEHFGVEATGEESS
As to the kind of experiment: isothermal titration calorimetry. Format: binding. The settings on record: read-out: affinities. A general note: ITC needs no label: the signal is the heat of the interaction.

For another data set, the target named is T3, CYP2A6 (Homo sapiens, UniProt P11509).
T3 construct: N-terminal Arabidopsis Fd2 transit peptide fusion; transient expression in Nicotiana benthamiana chloroplasts; amplified from E. coli expression construct
T3 sequence (P11509 1-494): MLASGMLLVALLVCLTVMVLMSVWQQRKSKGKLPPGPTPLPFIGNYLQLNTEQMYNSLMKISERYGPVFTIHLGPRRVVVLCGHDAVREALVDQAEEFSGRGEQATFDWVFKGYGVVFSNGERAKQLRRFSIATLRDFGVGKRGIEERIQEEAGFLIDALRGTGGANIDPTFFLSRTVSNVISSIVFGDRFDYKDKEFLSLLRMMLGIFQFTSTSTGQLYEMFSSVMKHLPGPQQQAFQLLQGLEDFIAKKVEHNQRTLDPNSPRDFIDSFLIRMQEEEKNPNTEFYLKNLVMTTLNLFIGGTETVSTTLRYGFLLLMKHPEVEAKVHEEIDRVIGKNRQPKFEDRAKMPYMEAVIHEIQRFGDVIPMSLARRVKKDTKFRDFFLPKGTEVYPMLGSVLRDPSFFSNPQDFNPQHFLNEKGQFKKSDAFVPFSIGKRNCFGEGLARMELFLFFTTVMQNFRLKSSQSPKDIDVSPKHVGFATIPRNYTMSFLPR
Nature of the data set: indican formation in infiltrated N. benthamiana leaves, LC-MS. The note with it: co-expressed with tnaA; chloroplast-targeted; product glucosylated to indican.

Another data set has as its target T4, CYP2E1 (Homo sapiens, UniProt P05181).
T4 construct: N-terminal Arabidopsis Fd2 transit peptide fusion; transient expression in Nicotiana benthamiana chloroplasts; amplified from E. coli expression construct
The data set is described as above. The settings on record: co-expressed with tnaA; chloroplast-targeted; product glucosylated to indican.

The next data set concerns the target T5, tnaA (Escherichia coli, UniProt P0A853).
T5 construct: synthetic gene, N-terminal chloroplast transit peptide (Arabidopsis Fd2); transient expression in Nicotiana benthamiana chloroplasts
As to the kind of experiment: indole accumulation in infiltrated N. benthamiana leaves, UPLC-UV. Set-up: species or system Nicotiana benthamiana leaves. The note with it: chloroplast-targeted; endogenous tryptophan.

For data set [1], the target named is T6, spinach FNR (spinach) (UniProt P00455).
T6 sequence: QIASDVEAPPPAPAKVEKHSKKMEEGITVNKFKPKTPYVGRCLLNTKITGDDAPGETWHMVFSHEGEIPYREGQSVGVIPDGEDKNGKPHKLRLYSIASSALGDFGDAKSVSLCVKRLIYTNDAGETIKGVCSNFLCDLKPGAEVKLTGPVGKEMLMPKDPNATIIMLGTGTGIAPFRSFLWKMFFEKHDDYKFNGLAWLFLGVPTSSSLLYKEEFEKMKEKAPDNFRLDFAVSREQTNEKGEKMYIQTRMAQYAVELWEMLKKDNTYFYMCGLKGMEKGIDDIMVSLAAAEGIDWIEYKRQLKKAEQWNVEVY

Data set [2] has as its target T6, spinach FNR (spinach). The source holds these as a separate data set.

T5 sequence (P0A853 whole entry): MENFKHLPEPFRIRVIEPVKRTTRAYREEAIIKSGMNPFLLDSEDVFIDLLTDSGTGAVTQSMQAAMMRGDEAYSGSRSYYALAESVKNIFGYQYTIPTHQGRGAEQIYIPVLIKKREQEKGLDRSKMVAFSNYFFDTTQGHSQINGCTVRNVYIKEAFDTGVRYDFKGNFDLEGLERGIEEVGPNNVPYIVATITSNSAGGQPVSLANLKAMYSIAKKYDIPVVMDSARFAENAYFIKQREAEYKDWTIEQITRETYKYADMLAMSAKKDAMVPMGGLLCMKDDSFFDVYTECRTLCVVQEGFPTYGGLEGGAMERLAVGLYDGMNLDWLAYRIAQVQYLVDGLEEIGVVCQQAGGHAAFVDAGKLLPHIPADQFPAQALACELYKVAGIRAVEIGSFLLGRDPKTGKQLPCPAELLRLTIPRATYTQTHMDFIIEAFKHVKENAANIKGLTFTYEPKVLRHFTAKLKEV
T4 sequence (P05181 whole entry, the tested form may be a part): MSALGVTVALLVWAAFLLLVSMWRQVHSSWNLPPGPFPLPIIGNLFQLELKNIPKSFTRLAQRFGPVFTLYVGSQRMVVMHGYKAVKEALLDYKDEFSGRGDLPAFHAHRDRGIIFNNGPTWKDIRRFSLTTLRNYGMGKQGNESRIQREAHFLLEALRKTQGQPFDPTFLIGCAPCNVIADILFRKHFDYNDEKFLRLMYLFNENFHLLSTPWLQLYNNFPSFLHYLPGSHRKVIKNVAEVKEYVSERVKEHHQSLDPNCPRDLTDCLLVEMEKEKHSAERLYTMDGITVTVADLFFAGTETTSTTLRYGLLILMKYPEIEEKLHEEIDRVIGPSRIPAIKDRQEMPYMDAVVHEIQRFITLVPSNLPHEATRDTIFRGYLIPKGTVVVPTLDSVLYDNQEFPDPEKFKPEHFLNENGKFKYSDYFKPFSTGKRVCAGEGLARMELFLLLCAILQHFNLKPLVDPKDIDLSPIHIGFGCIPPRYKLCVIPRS

For `Cc1cc2nc3c(=O)[nH]c(=O)nc-3n(C[C@H](O)[C@H](O)[C@H](O)COP(=O)(O)O)c2cc1C` [FMN], the Kd on IsiB^6803 is 2 nM; on HsCPR^62-241, 25.7 nM.

As to `c1ccc2[nH]ccc2c1` [indole], the “indican formation in infiltrated N. benthamiana leaves, LC-MS” value at CYP2A6 and on CYP2E1 was “accumulation was considerably higher when any P450 was co-expressed with tnaA” in each case.

Regarding `N[C@@H](Cc1c[nH]c2ccccc12)C(=O)O` [tryptophan], the “indole accumulation in infiltrated N. benthamiana leaves, UPLC-UV” value on tnaA is “Expression of tnaA alone led to detectable indole accumulation in leaf samples”.

On to “AtFd1 (from UniProt O04090 53-148) (natural protein)”, for which, in the data set with spinach FNR (spinach) [1], the Vmax/KM of NADPH-dependent reduction of the electron carrier by FNR came out at 5.4; the decrease of light-driven coumarin 7-hydroxylation by CYP2A B49 in thylakoids (10 µM redox partner) on adding 0.6 µM FNR and 1.6 mM NADP+ is 80%. For the same molecule, in the data set with spinach FNR (spinach) [2], the KM of the electron carrier in NADPH-dependent reduction by FNR (40 nM spinach FNR, carrier 1-100 µM, read by cytochrome c reduction, Michaelis-Menten fit) came out at 21.7 µM and the Vmax of NADPH-dependent reduction of the electron carrier by FNR (40 nM spinach FNR, carrier 1-100 µM, read by cytochrome c reduction, Michaelis-Menten fit) (µmol cyt c µmol FNR^-1 s^-1) stood at 118.

B1: IsiB^6803 (natural protein)
chain: T1 sequence (P27319 1-170)
For B1, in the data set with spinach FNR (spinach) [2], the KM of the electron carrier in NADPH-dependent reduction by FNR (40 nM spinach FNR, carrier 1-100 µM, read by cytochrome c reduction, Michaelis-Menten fit) was 17.7 µM and the Vmax of NADPH-dependent reduction of the electron carrier by FNR (40 nM spinach FNR, carrier 1-100 µM, read by cytochrome c reduction, Michaelis-Menten fit) (µmol cyt c µmol FNR^-1 s^-1) was determined as 10.

B2: HsCPR^62-241 (domain or fragment)
chain: T2 sequence (P16435 62-241)
For the molecule B2, in the data set with spinach FNR (spinach) [1], the Vmax/KM of NADPH-dependent reduction of the electron carrier by FNR worked out at 13.6. In the data set with spinach FNR (spinach) [2], the KM of the electron carrier in NADPH-dependent reduction by FNR (40 nM spinach FNR, carrier 1-100 µM, read by cytochrome c reduction, Michaelis-Menten fit) came to 9.2 µM and the Vmax of NADPH-dependent reduction of the electron carrier by FNR (40 nM spinach FNR, carrier 1-100 µM, read by cytochrome c reduction, Michaelis-Menten fit) (µmol cyt c µmol FNR^-1 s^-1) is 125.
